Assay results: patent US20110076272A1, “THERAPEUTIC METHODS AND COMPOSITIONS” (priority 2009, published 2011)

Key:
[1] = system: MDA-MB-435 established primary tumors; assay: MDA-MB-435 established primary tumor xenograft model; format: in vivo, mouse; parameters: reduction in activated TAFs assessed by aSMA signal / reduction in VEGF signal versus vehicle-treated tumors / reduction in SDF-1/CXCL12 signal / reduction in LOXL2 signal: concentration or dose not given beside the values
Description: To provide growing tumor tissue stock for subsequent orthotopic implantation, five- to six-week-old nude mice (NCr nu/nu) were injected subcutaneously with 2×10^6 MDA-MB-435-GFP cells (Anticancer, Inc., San Diego, Calif.) on the right flank. For this purpose, cultures of MDA-MB-435-GFP cells were harvested and dissociated by trypsinization, washed three times with cold serum-containing medium, and then kept on ice until injection. Cells were injected into the subcutaneous space of the flank of the animal in a total volume of 0.1 ml, within 30 min of harvesting. The nude mice were sacrificed to harvest tumor tissue 4 to 6 weeks after tumor cell injection for surgical orthotopic implantation (SOI) of tumor fragments.
Tumor pieces (˜1 mm^3), extracted from subcutaneously-growing GFP-expressing breast tumors, were implanted by surgical orthotopic implantation (SOI) on the breast of female nude mice (NCr nu/nu). Treatments with AB0023 (anti-LOXL2 monoclonal antibody), M64 (anti-LOX monoclonal antibody) and vehicle (all via intraperitoneal injection) and with Taxotere (by intravenous injection) were initiated when the average primary tumor volume reached 75 mm^3. Mice were administered the antibodies at a dose of 30 mg/kg twice a week for 28 days and Taxotere, at 10 mg/kg, was administered once a week for 3 weeks.
Body weight and tumor size were recorded weekly. At the conclusion of the study, mice were sacrificed by cervical dislocation after being anesthetized with carbon dioxide. Primary breast tumors were imaged, harvested, cut in half symmetrically and snap-frozen for histological and immunohistochemical analyses.
The solutions used for the immunohistochemistry (IHC) protocols were obtained from Biocare Medical (Concord, Calif.) unless otherwise stated. All procedures were performed at room temperature. Slides were fixed with 4% PFA for 10 minutes and were subsequently treated with Peroxidazed-1 (Biocare Medical, Concord, Calif.) for 5 minutes. Then, the slides were background blocked with SNIPER (Biocare Medical, Concord, Calif.) for 10 minutes. Primary antibody (2-5 ug/ml final concentration) was diluted in Da Vinci Green Universal Diluent and applied to slides for 30 minutes. Slides were then rinsed in PBS-Tween-20. The Mach2 polymer kit was used for antigen detection by adding rabbit probe for 30 minutes. DAB chromagen was added to the slides for 3-5 minutes, then slides were rinsed once with deionized water. The slides were then counter-stained with hematoxylin, followed by dehydration with graded alcohol. The slides were mounted with entellan mounting medium (Electron Microscopy Sciences, Hatfield, Pa.).

MDA-MB-231 cells = assay: Disseminated bone metastasis model, MDA-MB-231 cells injected in the left ventricle; format: in vivo, mouse
Description: The therapeutic consequences of inhibiting either LOXL2 or LOX were assessed in a model of disseminated bone metastasis. Specific antibodies targeting LOXL2 or LOX were used to treat mice injected in the left ventricle with ˜1 million labeled MDA-MB-231 cells. The breast tumor cell line MDA-MB-231 has been widely used as a model to study LOX, and expresses all 5 lysyl oxidase-type enzymes (FIG. 11, panel A). The ability of LOXL2 inhibitory antibody AB0023 to reduce tumor burden was compared to LOX-specific antibody M64, which is a monoclonal antibody targeting the same peptide sequence in the LOX enzymatic domain previously described as generating an inhibitory polyclonal antiserum.

HFF cells = assay: Transwell co-culture of HFF cells with LOXL2-secreting tumor cell lines; format: cell-based, human; settings: 72 hours co-culture
MCF7 cells = assay: Induction of EMT-like phenotype by LOXL2-containing conditioned media (rhodamine-phalloidin staining); format: cell-based; settings: MDA-MB231 or Hs-578t conditioned media; BAPN up to 2 mM
Description: Cells were seeded at 80% confluency, in an 8-chambered slide, 24 hours prior to the day of staining. After 24 hours, media was aspirated and the chambers were washed with PBS. Cells were then fixed with 4% Parafomaldehyde (PFA) for 20 minutes at room temperature and then permeabilized with 0.5% Saponin (JT Baker, Phillipsburg, N.J.) for 5 minutes at room temperature. Cells were then stained for 15 minutes at room temperature with a 1:100 dilution of rhodamine phalloidin (Invitrogen, Carlsbad, Calif.). Slides were mounted with Vectashield (Vector Laboratories, Burlingame, Calif.).
MCF7 or SW620 cells were seeded at 50,000 cells per well of an 8-chambered culture slide in HGDMEM (high-glucose Dulbecco's modified Eagle's medium containing 4.5 g/l glucose)+10% FBS, 2 mM L-glutamine, 24 hours prior to being exposed to conditioned medium (CM). 500 uls of fresh conditioned medium from MDA MB 231 cells was added to the chambers containing MCF7 cells. The cells were incubated with the CM for 48-96 hours. Conditioned medium from MCF7 or SW620 cells was used as a negative control. After 48-96 hours incubation with CM, the cells were stained with rhodamine-phalloidin as described above.

[2] = system: fibroblasts or tumor cell lines; assay: Short-term growth factor signaling (TGFb, PDGF-BB) with or without AB0023; format: cell-based
[3] = antibodies 30 mg/kg i.p. twice a week
[4] = tissue-based ELISA, fibroblasts and tumor cells

B1: AB0023: mouse anti-human LOXL2 monoclonal antibody; heavy chain variable region SEQ ID NO:1, light chain variable region SEQ ID NO:2 (antibody, listed as Mus musculus, V domains shown)
VH: MEWSRVFIFLLSVTAGVHSQVQLQQSGAELVRPGTSVKVSCKASGYAFTYYLIEWVKQRPGQGLEWIGVINPGSGGTNYNEKFKGKATLTADKSSSTAYMQLSSLTSDDSAVYFCARNWMNFDYWGQGTTLTVSS
VL: MRCLAEFLGLLVLWIPGAIGDIVMTQAAPSVSVTPGESVSISCRSSKSLLHSNGNTYLYWFLQRPGQSPQFLIYRMSNLASGVPDRFSGSGSGTAFTLRISRVEAEDVGVYYCMQHLEYPYTFGGGTKLEIK
modifications: Heavy chain; Light chain
abundance of fibroblasts in tumors versus vehicle ([1]; H&E staining and other markers): less abundant overall | necrosis in tumors ([1]; H&E, TNF-α IHC): significant regions of necrosis | reduction in LOXL2 signal ([1]; IHC of tumors): 55% | reduction in SDF-1/CXCL12 signal ([1]; IHC of tumors): 80% | reduction in VEGF signal versus vehicle-treated tumors ([1]; IHC of tumors): 76% | decrease in tumor volume at week 3 [1, 3]: 45% | decrease in tumor volume at week 5 [1, 3]: 33% | levels of Beclin-1 (autophagy) in tumor cells ([1]; mouse, in vivo): increased | pyknosis, reduced viability of tumor cells ([1]; mouse, in vivo): pyknosis and increased cytoplasmic condensation of nuclei | levels of TGF-β1 [1, 4]: reduced | levels of phosphorylated SMAD2 [1, 4]: reduced | levels of connective tissue growth factor (CTGF) ([1]; tumor tissue): reduced | reduction in Sirius red staining (crosslinked collagen, desmoplasia) ([1]; tumors harvested at day 39): 61% | reduction in activated TAFs assessed by aSMA signal ([1]; tumors harvested at day 39): 88% | reduction in tumor vasculature, CD31 signal ([1]; tumors harvested at day 39): 74% | reduction in tumor cell burden in the femurs, by median value (MDA-MB-231 cells; day 28, p=0.0021): 127 fold | reduction in tumor cell burden in total ventral bone, by median value (MDA-MB-231 cells; day 28, p=0.0197): 28 fold | survival (MDA-MB-231 cells; separate study, 30 mg/kg AB0023 twice weekly in combination with 5 mg/kg Paclitaxel once per week, p=0.025): significant survival benefit | reduction in VEGF protein expression (HFF cells): 39-46% | reduction in α-SMA levels (HFF cells): 41% | relative decrease in pSMAD2 phosphorylation (HFF cells): 56-94% | remodeling of the actin cytoskeleton induced by LOXL2-containing conditioned media (MCF7 cells): abrogated | inhibition of SMAD2 phosphorylation (TGFb signaling) ([2]; 10-60 minute time frame): 10-20% | effect on AKT phosphorylation ([2]; PDGF-BB, 10-60 minute time periods): No significant effects
